What was measured:
[1] = target: SNAPf-tagged EWS/FLI1 (human); assay: live-cell single-particle tracking
[2] = target: FUS LCD (UniProt P35637); assay: live-cell single-particle tracking
Chain of UniProt P35637 (P35637 2-214): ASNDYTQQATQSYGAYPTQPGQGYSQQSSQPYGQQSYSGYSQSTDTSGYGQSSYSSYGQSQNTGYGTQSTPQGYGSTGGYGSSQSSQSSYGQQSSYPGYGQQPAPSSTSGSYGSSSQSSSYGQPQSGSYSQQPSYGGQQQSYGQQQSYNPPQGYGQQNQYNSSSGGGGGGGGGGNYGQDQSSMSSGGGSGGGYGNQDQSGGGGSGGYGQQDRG

Row | residence time (RT) [1] [s] | residence time (RT) [2] [s] | Substance
1 | 16 | – | EWS LCD-Halo (domain or fragment)
2 | – | < 1 | Sp1 LCD (from UniProt P08047 1-785) (domain or fragment)
3 | 7 | – | EWS(YS) LCD-Halo (domain or fragment)

Source: paper PMC6961784
